In the supplement of paper PMC10724198:

Tested on: Saccharomyces cerevisiae
Experiment: protein stability index of tFT-peptide fusion in wild type (PSI (0-1 scale)); higher = more stable (slower turnover)
Details: genetic background: wild type
Procedure: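 MPS profiling in S. cerevisiae of two library types built from selected 12-aa C-degron peptides (IN1, IN2, LN1, LN3, VN2, R1-R5, W1-W3, Atg1 and Rpa12 C-termini): saturation mutagenesis libraries and C-terminal +1 capping libraries (13 aa). Each peptide is fused to the C-terminus of a sfGFP-mCherry timer, after a GGGS linker. Cells are FACS-sorted into 8 mCherry/sfGFP bins and sequenced. PSI runs from 0 (unstable) to 1 (stable), measured once in wild type and in the das1Δ or doa10Δ background.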
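Also: PSI derived as read-weighted mean over the 8 sorting bins, only variants exceeding 10 total reads kept, mCherry placed adjacent to the peptide and sfGFP distal.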

Row | Sequence | protein stability index
1 | AIWRVGLWRGAS | 0.405
2 | ARTRVGLWRGAS | 0.598
3 | ARWRVGFWRGAS | 0.551
4 | ARWRVGLLRGAS | 0.652
5 | ARWRVGLWRGAQ | 0.411
6 | ARWRVGLWRGNS | 0.553
7 | ARWRVGYWRGAS | 0.478
8 | ARWRVSLWRGAS | 0.268
9 | CESCGYKFRTNN | 0.327
10 | CMSCGYKFRTNN | 0.228
11 | CRGAVGGWRLVG | 0.163
12 | CTCCGYKFRTNN | 0.294
13 | CTKCGYKFRTNN | 0.258
14 | CTNCGYKFRTNN | 0.216
15 | CTSCGAKFRTNN | 0.502
16 | CTSCGCKFRTNN | 0.543
17 | CTSCGLKFRTNN | 0.34
18 | CTSCGVKFRTNN | 0.486
19 | CTSCGYKCRTNN | 0.601
20 | CTSCGYKFATNN | 0.385
21 | CTSCGYKFHTNN | 0.429
22 | CTSCGYKFRDNN | 0.673
23 | CTSCGYKFRQNN | 0.497
24 | CTSCGYKFRTCN | 0.18

Row | Sequence | protein stability index
25 | CTSCGYKFRTNF | 0.417
26 | CTSCGYKFRTNNH | 0.687
27 | CTSCGYKFRTNNK | 0.669
28 | CTSCGYKFRTNR | 0.696
29 | CTSCGYKFRTNY | 0.611
30 | CTSCGYKFRTQN | 0.201
31 | CTSCGYKFSTNN | 0.684
32 | CTSCYYKFRTNN | 0.199
33 | CTSEGYKFRTNN | 0.507
34 | CTSQGYKFRTNN | 0.251
35 | CTTCGYKFRTNN | 0.267
36 | DLIQPLPVQFLN | 0.127
37 | ERWRVGLWRGAS | 0.378
38 | ETSCGYKFRTNN | 0.266
39 | FDMRWTFRYWVN | 0.089
40 | FEMRWTFRYWVN | 0.0443
41 | FFMRWTFRYWVN | 0.0417
42 | FSERWTFRYWVN | 0.122
43 | FSMCWTFRYWVN | 0.0491
44 | FSMDWTFRYWVN | 0.0547
45 | FSMIWTFRYWVN | 0.0367
46 | FSMKWTFRYWVN | 0.0449
47 | FSMPWTFRYWVN | 0.11
48 | FSMRKTFRYWVN | 0.0767

Row | Sequence | protein stability index
49 | FSMRPTFRYWVN | 0.12
50 | FSMRWHFRYWVN | 0.0543
51 | FSMRWIFRYWVN | 0.163
52 | FSMRWMFRYWVN | 0.094
53 | FSMRWPFRYWVN | 0.0756
54 | FSMRWRFRYWVN | 0.0911
55 | FSMRWTFRMWVN | 0.0197
56 | FSMRWTFRPWVN | 0.245
57 | FSMRWTFRVWVN | 0.035
58 | FSMRWTFRYPVN | 0.548
59 | FSMRWTFRYWCN | 0.081
60 | FSMRWTFRYWVF | 0.0705
61 | FSMRWTFRYWVND | 0.539
62 | FSMRWTFRYWVNG | 0.431
63 | FSMRWTFRYWVNM | 0.113
64 | FSMRWTYRYWVN | 0.0544
65 | FTMRWTFRYWVN | 0.0324
66 | GSLAASFWRVVG | 0.147
67 | GVVYLSCVACIN | 0.0144
68 | HKHKKGQKQKIN | 0.114
69 | KFHKKGQKQKIN | 0.139
70 | KKGKKGQKQKIN | 0.11
71 | KKHGKGQKQKIN | 0.0862
72 | KKHKKGAKQKIN | 0.0819

Row | Sequence | protein stability index
73 | KKHKKGHKQKIN | 0.111
74 | KKHKKGQFQKIN | 0.112
75 | KKHKKGQKCKIN | 0.153
76 | KKHKKGQKQKFN | 0.307
77 | KKHKKGQKQKHN | 0.439
78 | KKHKKGQKQKIM | 0.179
79 | KKHKKGQKQKINE | 0.635
80 | KKHKKGQKQKIV | 0.136
81 | KKHKKGQKQKLN | 0.133
82 | KKHKKGQKQKTN | 0.472
83 | KKHKKGQKQNIN | 0.618
84 | KKHKKGQKQRIN | 0.127
85 | KKHKKGQKQVIN | 0.579
86 | KKHKKGQKQYIN | 0.24
87 | KKHKKLQKQKIN | 0.054
88 | KKHKKNQKQKIN | 0.217
89 | KKHKKRQKQKIN | 0.0558
90 | KKHKKVQKQKIN | 0.165
91 | KKHKTGQKQKIN | 0.0826
92 | KKHWKGQKQKIN | 0.112
93 | KRGAVGGWRLVG | 0.165
94 | KSHKKGQKQKIN | 0.119
95 | KYHKKGQKQKIN | 0.0981
96 | LIILRQKMNHQN | 0.152

Row | Sequence | protein stability index
97 | LIVYLSCVACIN | 0.0145
98 | LKGLRQKMNHQN | 0.196
99 | LKIKRQKMNHQN | 0.208
100 | LKILMQKMNHQN | 0.244
101 | LKILQQKMNHQN | 0.163
102 | LKILRDKMNHQN | 0.232
103 | LKILRKKMNHQN | 0.224
104 | LKILRQFMNHQN | 0.192
105 | LKILRQKKNHQN | 0.312
106 | LKILRQKLNHQN | 0.187
107 | LKILRQKMIHQN | 0.196
108 | LKILRQKMMHQN | 0.232
109 | LKILRQKMNHFN | 0.21
110 | LKILRQKMNHGN | 0.47
111 | LKILRQKMNHHN | 0.247
112 | LKILRQKMNHQF | 0.255
113 | LKILRQKMNHQH | 0.231
114 | LKILRQKMNHQNC | 0.606
115 | LKILRQKMNHQNQ | 0.623
116 | LKILRQKMNHWN | 0.216
117 | LKILRQKMSHQN | 0.37
